Key:
[1] = biological target: T1, DinGNm (Neisseria meningitidis, UniProt Q9K181); assay: forked DNA (T1+B1) unwinding, native PAGE; format: biochemical; conditions: 2 mM nucleotide, 2 mM Mg2+, 400 nM DinG, pH 7.5, 37 °C; read-out is nucleotide-dependent unwinding
T1 construct: gene dinG; full-length gene amplified from MC58 genomic DNA, C-terminal 6xHis tag (pET-28b(+), pSB13), E. coli NiCo21(DE3); Ni-NTA and Resource Q; iron-containing (4 Fe per protein)
T1 sequence (Q9K181 1-716): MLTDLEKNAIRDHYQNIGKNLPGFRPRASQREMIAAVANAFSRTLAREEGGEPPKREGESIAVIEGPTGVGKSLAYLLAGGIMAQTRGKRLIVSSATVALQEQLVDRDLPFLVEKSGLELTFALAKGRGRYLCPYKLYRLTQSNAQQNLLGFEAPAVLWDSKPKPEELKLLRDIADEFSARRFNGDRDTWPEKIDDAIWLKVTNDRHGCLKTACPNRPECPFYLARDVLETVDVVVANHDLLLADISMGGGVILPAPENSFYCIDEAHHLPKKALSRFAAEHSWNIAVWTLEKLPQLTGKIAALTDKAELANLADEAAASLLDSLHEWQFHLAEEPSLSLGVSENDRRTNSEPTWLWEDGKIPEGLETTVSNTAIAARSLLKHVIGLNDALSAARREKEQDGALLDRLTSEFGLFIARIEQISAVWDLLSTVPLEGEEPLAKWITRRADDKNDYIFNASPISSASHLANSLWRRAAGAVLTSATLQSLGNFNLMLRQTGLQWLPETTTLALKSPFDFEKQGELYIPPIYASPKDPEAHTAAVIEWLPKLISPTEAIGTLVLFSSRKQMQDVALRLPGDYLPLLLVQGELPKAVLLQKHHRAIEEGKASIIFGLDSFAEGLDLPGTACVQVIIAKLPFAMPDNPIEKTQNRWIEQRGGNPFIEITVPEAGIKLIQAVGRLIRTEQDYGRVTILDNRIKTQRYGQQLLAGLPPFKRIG

[2] = biological target: T2, Neisseria meningitidis helicase DinG (DinGNm) (N. meningitidis MC58, UniProt Q9K181 1-716); assay: MST; SSB proteins labelled (RED-NHS, 20.7 nM), DinG proteins titrated as ligands; 20 mM HEPES pH 7.5, 300 mM NaCl, 0.05% Tween 20, 0.1% Pluronic F-127, 0.1% PEG 8000, 2 mM DTT; 22°C, 20% MST power; conditions: both partners purified
T2 construct: DinG helicase of Neisseria meningitidis strain MC58, gene amplified from genomic DNA and cloned into pET-28b(+) (plasmid pSB13); also called Nm DinG; DNA damage-inducible protein DinG; source: E. coli NiCo21 (DE3) with pLysS, purified (Ni-NTA, Resource Q ion exchange)
T2 sequence (looked up): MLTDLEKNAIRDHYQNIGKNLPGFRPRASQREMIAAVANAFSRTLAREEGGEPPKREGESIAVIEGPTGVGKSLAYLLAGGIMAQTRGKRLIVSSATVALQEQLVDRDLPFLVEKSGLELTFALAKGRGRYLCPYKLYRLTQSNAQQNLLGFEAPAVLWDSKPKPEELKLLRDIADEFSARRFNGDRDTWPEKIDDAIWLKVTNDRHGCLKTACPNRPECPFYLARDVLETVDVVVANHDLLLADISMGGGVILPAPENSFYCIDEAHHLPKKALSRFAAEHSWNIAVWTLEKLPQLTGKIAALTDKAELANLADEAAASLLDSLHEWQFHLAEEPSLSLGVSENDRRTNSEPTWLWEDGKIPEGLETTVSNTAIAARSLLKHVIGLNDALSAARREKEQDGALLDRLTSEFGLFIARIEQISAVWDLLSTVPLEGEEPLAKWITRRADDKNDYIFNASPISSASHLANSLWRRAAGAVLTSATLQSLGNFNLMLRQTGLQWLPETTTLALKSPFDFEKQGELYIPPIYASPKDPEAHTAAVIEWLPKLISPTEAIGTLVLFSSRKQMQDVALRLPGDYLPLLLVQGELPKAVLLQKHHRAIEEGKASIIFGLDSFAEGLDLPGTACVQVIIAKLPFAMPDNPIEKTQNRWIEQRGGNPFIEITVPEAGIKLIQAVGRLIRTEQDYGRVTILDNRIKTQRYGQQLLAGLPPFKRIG

[3] = biological target: DinGNmK72A (Neisseria meningitidis MC58, UniProt Q9K181 1-716, K72A); assay: EMSA; protein titration; mutant retained DNA binding affinity; EMSA: 40 mM Tris-HCl pH 8, 2.5 mM EDTA, 2 mM MgCl2, 100 mg/ml BSA (so in the source), 6% glycerol, 2 mM DTT, 0.1 nM 32P-DNA, 15 min on ice; 5% native PAGE in ice bath; conditions: protein: recombinant; tags: C-terminal 6xHis; label: 32P; single strand
[4] = biological target: SSBNmΔ8C (N. meningitidis MC58); assay: MST; SSB proteins labelled (RED-NHS, 20.7 nM), DinG proteins titrated as ligands; 20 mM HEPES pH 7.5, 300 mM NaCl, 0.05% Tween 20, 0.1% Pluronic F-127, 0.1% PEG 8000, 2 mM DTT; 22°C, 20% MST power

## Nc1ncnc2c1ncn2[C@H]1C[C@H](O)[C@@H](COP(=O)(O)OP(=O)(O)OP(=O)(O)O)O1 [dATP]
[1]
  forked DNA (T1+B1) unwinding, native PAGE: unwinding activity of DinGNm was observed only in the presence of ATP or dATP

B1: Neisseria meningitidis single-stranded DNA binding protein (SSBNm) (natural protein, N. meningitidis MC58, UniProt P66848 1-174, looked up)
chain: MSLNKVILIGRLGRDPEVRYMPNGEAVCNFSVATSETWNDRNGQRVERTEWHNITMYRKLAEIAGQYLKKGGLVYLEGRIQSRKYQGKDGIERTAYDIVANEMKMLGGRNENSGGAPYEEGYGQSQEAYQRPAQQSRQPASDAPSHPQEAPAAPRRQPVPAAAPVEDIDDDIPF
modifications: in the MST assay labelled with the Monolith NT Protein Labeling Kit RED-NHS, degree of labelling 0.7
notes: SSB of Neisseria meningitidis, expression vector pEH1; Unlabelled in the ammonium sulphate co-precipitation
[2]
  Kd: 1360 ± 110 nM

B2: poly dT100 (ssDNA)
DNA: TTTTTTTTTTTTTTTTTTTTTTTTTTTTTTTTTTTTTTTTTTTTTTTTTTTTTTTTTTTTTTTTTTTTTTTTTTTTTTTTTTTTTTTTTTTTTTTTTTTT
[3]
  binding result: binds

B3: Neisseria meningitidis helicase DinG (DinGNm) (enzyme)
chain: MLTDLEKNAIRDHYQNIGKNLPGFRPRASQREMIAAVANAFSRTLAREEGGEPPKREGESIAVIEGPTGVGKSLAYLLAGGIMAQTRGKRLIVSSATVALQEQLVDRDLPFLVEKSGLELTFALAKGRGRYLCPYKLYRLTQSNAQQNLLGFEAPAVLWDSKPKPEELKLLRDIADEFSARRFNGDRDTWPEKIDDAIWLKVTNDRHGCLKTACPNRPECPFYLARDVLETVDVVVANHDLLLADISMGGGVILPAPENSFYCIDEAHHLPKKALSRFAAEHSWNIAVWTLEKLPQLTGKIAALTDKAELANLADEAAASLLDSLHEWQFHLAEEPSLSLGVSENDRRTNSEPTWLWEDGKIPEGLETTVSNTAIAARSLLKHVIGLNDALSAARREKEQDGALLDRLTSEFGLFIARIEQISAVWDLLSTVPLEGEEPLAKWITRRADDKNDYIFNASPISSASHLANSLWRRAAGAVLTSATLQSLGNFNLMLRQTGLQWLPETTTLALKSPFDFEKQGELYIPPIYASPKDPEAHTAAVIEWLPKLISPTEAIGTLVLFSSRKQMQDVALRLPGDYLPLLLVQGELPKAVLLQKHHRAIEEGKASIIFGLDSFAEGLDLPGTACVQVIIAKLPFAMPDNPIEKTQNRWIEQRGGNPFIEITVPEAGIKLIQAVGRLIRTEQDYGRVTILDNRIKTQRYGQQLLAGLPPFKRIG
[4]
  Kd: 3710 nM
